The record followed here is article PMC12369479.

“And” between values parts separate entries of the source, which are not always exact repeats. Equal entries are not always repeated.

Substrate in data set [1]: CC(C)=CCNc1ncnc2c1ncn2C1OC(CO)C(O)C1O
Description: ADK activity, coupled reaction with PK and LDH. The data set is classed as biochemical, Physcomitrella patens. The following applies: other: PpADK1, 10 mM ATP, pH 7.5, 30 °C. Here is the method:
(§1) Substrate analogs were purchased from Sigma-Aldrich (www.sigmaaldrich.com). The ADK activity was measured spectrophotometrically on an Agilent 8453 UV-Vis spectrophotometer (www.agilent.com) at 30 °C using a coupled reaction with pyruvate kinase (PK) and lactate dehydrogenase (LDH) (www.sigmaaldrich.com) ([Blondin et al., 1994]). In this assay, PK converts ADP produced by ADK and phosphoenolpyruvate (PEP) to pyruvate. Subsequently, LDH then converts pyruvate to lactate using the coenzyme NADH, with the conversion monitored at 340 nm. The reaction was conducted in 50 mM Tris–HCl buffer at pH 7.5, containing 50 mM KCl, 6 mM MgCl2, 300 µM PEP, 200 µM NADH, 10 mM ATP, 2 U of PK, and 2.5 U of LDH, using various nucleoside substrates. Kinetic constants were determined using GraphPad Prism 8.0 software (www.graphpad.com). Each measurement was performed six times using repetitive purified enzymes. The activities of all five ADKs were also measured by HPLC ([Moffatt et al., 1991]). The reaction mixture comprised 50 mM Tris–HCl pH 7.5, 5 mM MgCl2, 0.5 mM DTT, 30 mM NaF, 5 mM ATP, 40 µM substrate, and 2–150 ng of purified ADK, depending on the isoform. The reaction was incubated at 30 °C for up to 1 h. […]

Substrate in data set [2]: Nc1ncnc2c1ncn2[C@@H]1O[C@H](CO)[C@@H](O)[C@H]1O
Put plainly: ADK activity, coupled reaction with PK and LDH. Format: biochemical, Physcomitrella patens. The following applies: other: PpADK1, 10 mM ATP, pH 7.5, 30 °C. Here is the method:
as §1

Substrate in data set [3]: CC(C)=CCNc1ncnc2c1ncn2C1OC(CO)C(O)C1O
Description: ADK activity, coupled reaction with PK and LDH. Format: biochemical, Zea mays. The following applies: other: ZmADK2, 10 mM ATP, pH 7.5, 30 °C. Here is the method: (§2) Substrate analogs were purchased from Sigma-Aldrich (www.sigmaaldrich.com). The ADK activity was measured spectrophotometrically on an Agilent 8453 UV-Vis spectrophotometer (www.agilent.com) at 30 °C using a coupled reaction with pyruvate kinase (PK) and lactate dehydrogenase (LDH) (www.sigmaaldrich.com) ([Blondin et al., 1994]). In this assay, PK converts ADP produced by ADK and phosphoenolpyruvate (PEP) to pyruvate. Subsequently, LDH then converts pyruvate to lactate using the coenzyme NADH, with the conversion monitored at 340 nm. The reaction was conducted in 50 mM Tris–HCl buffer at pH 7.5, containing 50 mM KCl, 6 mM MgCl2, 300 µM PEP, 200 µM NADH, 10 mM ATP, 2 U of PK, and 2.5 U of LDH, using various nucleoside substrates. Kinetic constants were determined using GraphPad Prism 8.0 software (www.graphpad.com). Each measurement was performed six times using repetitive purified enzymes. The activities of all five ADKs were also measured by HPLC ([Moffatt et al., 1991]). The reaction mixture comprised 50 mM Tris–HCl pH 7.5, 5 mM MgCl2, 0.5 mM DTT, 30 mM NaF, 5 mM ATP, 40 µM substrate, and 2–150 ng of purified ADK, depending on the isoform. The reaction was incubated at 30 °C for up to 1 h. […] Similarly, the conversion of cytokinin ribosides to monophosphates was followed on a LiChrosphere 60 RP-Select B (5 µm) LiChroCART column 125-4 column equilibrated with 10 mM triethylamine at pH 5.4 plus 10% methanol, and stepwise eluted with 100% methanol.

Substrate in data set [4]: Nc1ccn([C@@H]2O[C@H](CO)[C@@H](O)[C@H]2O)c(=O)n1
Description: ADK activity, coupled reaction with PK and LDH. The data set is classed as biochemical, Zea mays. The following applies: other: ZmADK2, 10 mM ATP, pH 7.5, 30 °C. Here is the method: as §2

Substrate in data set [5]: Nc1nc2c(ncn2[C@@H]2O[C@H](CO)[C@@H](O)[C@H]2O)c(=O)[nH]1
Put plainly: ADK activity, coupled reaction with PK and LDH. Format: biochemical, Zea mays. The following applies: other: ZmADK2, 10 mM ATP, pH 7.5, 30 °C. As to the method: as §2

Substrate in data set [6]: Nc1ncnc2c1ncn2[C@@H]1O[C@H](CO)C[C@H]1O
Description: ADK activity, coupled reaction with PK and LDH. Format: biochemical, Zea mays. The following applies: other: ZmADK2, 10 mM ATP, pH 7.5, 30 °C. As to the method:
as §2

Substrate in data set [7]: Nc1ncnc2c1ncn2[C@@H]1O[C@H](CO)[C@@H](O)[C@@H]1O
Put plainly: ADK activity, coupled reaction with PK and LDH. Format: biochemical, Zea mays. The following applies: other: ZmADK2, 10 mM ATP, pH 7.5, 30 °C. Here is the method: as §2

Substrate in data set [8]: Nc1ncnc2c1ncn2[C@@H]1O[C@H](CO)[C@@H](O)[C@H]1O
Description: ADK activity, coupled reaction with PK and LDH. Format: biochemical, Zea mays. The following applies: other: ZmADK2, 10 mM ATP, pH 7.5, 30 °C. Here is the method: as §2

Substrate in data set [9]: O=c1[nH]c(=O)c2ncn([C@@H]3O[C@H](CO)[C@@H](O)[C@H]3O)c2[nH]1
Description: ADK activity, coupled reaction with PK and LDH. Format: biochemical, Zea mays. The following applies: other: ZmADK2, 10 mM ATP, pH 7.5, 30 °C. As to the method: as §2

Substrate in data set [10]: OC[C@H]1O[C@@H](n2cnc3c(O)ncnc32)[C@H](O)[C@@H]1O
Description: ADK activity, coupled reaction with PK and LDH. Format: biochemical, Zea mays. The following applies: other: ZmADK2, 10 mM ATP, pH 7.5, 30 °C. As to the method:
as §2

Substrate in data set [11]: Nc1ncnc2c1ncn2[C@@H]1O[C@H](CO)[C@@H](O)[C@H]1O
Description: purified protein, by the assay type. The following applies: pH 7.5, 30 °C.
Description: The ADK activity was measured spectrophotometrically on an Agilent 8453 UV-Vis spectrophotometer (www.agilent.com) at 30 °C using a coupled reaction with pyruvate kinase (PK) and lactate dehydrogenase (LDH) (www.sigmaaldrich.com) ([Blondin et al., 1994]). In this assay, PK converts ADP produced by ADK and phosphoenolpyruvate (PEP) to pyruvate. Subsequently, LDH then converts pyruvate to lactate using the coenzyme NADH, with the conversion monitored at 340 nm. The reaction was conducted in 50 mM Tris–HCl buffer at pH 7.5, containing 50 mM KCl, 6 mM MgCl2, 300 µM PEP, 200 µM NADH, 10 mM ATP, 2 U of PK, and 2.5 U of LDH, using various nucleoside substrates. Kinetic constants were determined using GraphPad Prism 8.0 software (www.graphpad.com). […] The activities of all five ADKs were also measured by HPLC ([Moffatt et al., 1991]). The reaction mixture comprised 50 mM Tris–HCl pH 7.5, 5 mM MgCl2, 0.5 mM DTT, 30 mM NaF, 5 mM ATP, 40 µM substrate, and 2–150 ng of purified ADK, depending on the isoform. The reaction was incubated at 30 °C for up to 1 h. […] Similarly, the conversion of cytokinin ribosides to monophosphates was followed on a LiChrosphere 60 RP-Select B (5 µm) LiChroCART column 125-4 column equilibrated with 10 mM triethylamine at pH 5.4 plus 10% methanol, and stepwise eluted with 100% methanol.

B1: PpADK1 (Physcomitrium patens) (protein)
chain: MASEGVLLGMGNPLLDISCVVDDAFLEKYGLTLNNAILAEDKHLPMYKELAANPDVEYIAGGATQNTIRIAQWMLGESNATSYFGCVGKDEYGDRMFKLASEGGVNIRYDVDEDLPTGTCGVLVVKGERSLVANLSAANKYKIDHLKKPENWAFVEKAKYIYSAGFFLTVSPESMMTVAKHAAETGKYYMINLAAPFICQFFKDPLMELFPYVDFIFGNESEARAFAQVQGWETEDTKVIAVKLAALPKAGGTHKRVAVITQGTDPTIVAEDGKVTEFPVTPIPKEKLVDTNAAGDSFVGGFLSQLVLGKDIAQCVRAGNYAASVIIQRSGCTFPSKPSFESQ
notes: made in house; host or cells: E. coli T7 Express Iq
Consider B1, for which the Michaelis-Menten constant (Km) (in general, the concentration of substrate that gives half-maximal velocity) was 12.1 ± 2.5 µM in data set [1] and 0.71 ± 0.05 µM in [2].

B2: ZmADK2 (Zea mays; T4S) (protein)
chain: MAASEGVLLGMGNPLLDISAVVDDAFLTKYDIKLNNAILAEEKHLPMYDELASKSNVEYIAGGATQNSIRVAQWMLQTPGATSYMGCIGKDKFGEEMKKNAQAAGVTAHYYEDETAPTGTCAVCVVGGERSLIANLSAANCYKSEHLKRPENWALVEKAKYIYIAGFFLTVSPDSIQLVAEHAAANNKVFLMNLSAPFICEFFRDAQEKVLPYADYIFGNETEAKIFAKVRGWETENIEEIALKISQLPLASGKQKRIAVITQGADPVVVAEDGKVKTFPVILLPKEKLVDTNGAGDAFVGGFLSQLVLGKGIEDCVRAGCYAANVIIQRPGCTYPEKPDFN
B2: the Km in [3] was 9.8 ± 1.5 µM; in [4] it was 313 ± 28 µM; in data set [5], 218 ± 23 µM; in data set [6], 170 µM and 173 ± 11 µM; in data set [7] it was 524 ± 51 µM; in [8], 0.65 ± 0.09 µM. Also, the Km in [9] is 178 ± 10 µM; in data set [10], 420 ± 44 µM. The kcat (commonly the maximal rate divided by the concentration of active sites) in [4] was 0.23 ± 0.01 s⁻¹; in data set [5], 0.48 ± 0.02 s⁻¹; in data set [6], 0.43 ± 0.01 s⁻¹; in data set [7], 0.24 ± 0.02 s⁻¹; in data set [9] it was 0.55 ± 0.01 s⁻¹; in [10] it was 0.57 ± 0.02 s⁻¹.

B3: ZmADK1 (Zea mays) (protein)
chain: MAASEGVLLGMGNPLLDISAVVDDAFLAKYDIKLNNAILAEEKHSPMYDELASNSNVEYIAGGATQNSIRVAQWMLQTPGATSYMGCIGKDKFGEEMKKNAQAAGVTAHYYEDETAPTGTCAVCVVGGERSLIANLSAANCYKSEHLKRPENWALVEKAKYIYIAGFFLTVSPDSIQLVAEHAAANNKVFLMNLSAPFICEFFYDAQEKVLPYADFIFGNETEAKIFAKVRGWETENVEEIALKISQLPLASGKQKRIAVITQGADPVVVAEDGKVKTFPVILLPKEKLVDTNGAGDAFVGGFLSRLVQGKSIEDCVTAGCYAANVVIQRPGCTYPEKPDFN
For B3, the Km in data set [11] (other: ZmADK1, 10 mM ATP) worked out at 0.62 ± 0.11 µM.

B4: PpADK2 (Physcomitrium patens) (protein)
chain: MASEGVLLGMGNPLLDISCVVDEAFLEKYGLTLNNAILAEDKHLPIYKELAGRPDVEYIAGGATQNTIRIAQWMLREPKATSYIGCVGKDEFGDRMYKLASEGGVNIQYDVDEELPTGTCGVLVVKGERSLVANLSAAKKYKIDHLKKPENWVCVERAKFIYSSGFFLAVSPESMMTVARHAAETGKYYMINLAAPFICQFKDLMELFPYVDFIFGNESEARTFAQVQGWETEDTKIIAVKLAALPKASGTHKRVAVITQGTDPTIVSVDGQVTEIPITVIPKNKLVDTNAAGDAFVGGFLSQLVLGKDIVECVRAGNYASSIIIQRSGCTFPLKPCFQSE
For the protein B4, the Km in data set [11] (other: PpADK2, 10 mM ATP) stood at 0.54 ± 0.05 µM.
